Laboratory results published in patent publication US10702592B2, “Peptides and combination of peptides for use in immunotherapy against NHL and other cancers” (Immatics Biotechnologies GmbH, priority 2016, dated 2020).

Target: HLA-A*02:01 (Homo sapiens, UniProt P04439, D140Y/D185E/D98H/E176V/E277Q/G131W/G231S/I119V/I121R/I166T/I218V/L300P/L318F/N151K/N90K/P208A/P217A/Q86G/Q94H/R138H/R169H/T345S)
Test: MHC binding assay (UV-ligand exchange, beta2m ELISA)
Conditions: binding to HLA-A*02:01, UV-ligand exchange
Excerpt: Candidate peptides for T cell based therapies according to the present invention were further tested for their MHC binding capacity (affinity). The individual peptide-MHC complexes were produced by UV-ligand exchange, where a UV-sensitive peptide is cleaved upon UV-irradiation, and exchanged with the peptide of interest as analyzed. Only peptide candidates that can effectively bind and stabilize the peptide-receptive MHC molecules prevent dissociation of the MHC complexes. To determine the yield of the exchange reaction, an ELISA was performed based on the detection of the light chain (β2m) of stabilized MHC complexes. The assay was performed as generally described in Rodenko et al. (Rodenko et al., 2006).
96 well MAXISorp plates (NUNC) were coated over night with 2 ug/ml streptavidin in PBS at room temperature, washed 4× and blocked for 1 h at 37° C. in 2% BSA containing blocking buffer. Refolded HLA-A*02:01/MLA-001 monomers served as standards, covering the range of 15-500 ng/ml. Peptide-MHC monomers of the UV-exchange reaction were diluted 100 fold in blocking buffer. Samples were incubated for 1 h at 37° C., washed four times, incubated with 2 ug/ml HRP conjugated anti-β2m for 1 h at 37° C., washed again and detected with TMB solution that is stopped with […]. Absorption was measured at 450 nm. Candidate peptides that show a high exchange yield (preferably higher than 50%, most preferred higher than 75%) are generally preferred for a generation and production of antibodies or fragments thereof, and/or T cell receptors or fragments thereof, as they show sufficient avidity to the MHC molecules and prevent dissociation of the MHC complexes.

Substance | Peptide exchange (MHC class I binding score, peptide exchange yield)
4 (TLLGFFLAKV; listed as Homo sapiens) [compound 4] | “++” (≥20% = ++)
6 (TLITLPLLFL; listed as Homo sapiens) [compound 6] | “+++” (≥50 = +++)
10 (FLLVGTQIDL; listed as Homo sapiens) [compound 10] | “+++” (≥50 = +++)
11 (GLDTVVALL; listed as Homo sapiens) [compound 11] | “+++” (≥50 = +++)
14 (LLSDPTPGA; listed as Homo sapiens) [compound 14] | “++” (≥20% = ++)
15 (IIIEDLLEA; listed as Homo sapiens) [compound 15] | “++++” (≥75% = ++++)
16 (TLIAAILYL; listed as Homo sapiens) [compound 16] | “++” (≥20% = ++)
18 (KLTDQPPLV; listed as Homo sapiens) [compound 18] | “+++” (≥50 = +++)
23 (ALVEDIINL; listed as Homo sapiens) [compound 23] | “++++” (≥75% = ++++)
31 (KLYDEESLL; listed as Homo sapiens) [compound 31] | “++++” (≥75% = ++++)
32 (VLNEDELPSV; listed as Homo sapiens) [compound 32] | “+++” (≥50 = +++)
34 (LLWEDGVTEA; listed as Homo sapiens) [compound 34] | “+++” (≥50 = +++)
38 (YLTAEILELAGN; listed as Homo sapiens) [compound 38] | “++” (≥20% = ++)
39 (QLLPQGIVPAL; listed as Homo sapiens) [compound 39] | “+++” (≥50 = +++)
45 (FILDDSALYL; listed as Homo sapiens) [compound 45] | “+++” (≥50 = +++)
48 (KILDEDLYI; listed as Homo sapiens) [compound 48] | “+++” (≥50 = +++)
49 (TILGDPQILL; listed as Homo sapiens) [compound 49] | “++++” (≥75% = ++++)
50 (LLLDGLIYL; listed as Homo sapiens) [compound 50] | “+++” (≥50 = +++)
54 (DIFDAMFSV; listed as Homo sapiens) [compound 54] | “+” (≥10% = +)
55 (ILVEVDLVQA; listed as Homo sapiens) [compound 55] | “++++” (≥75% = ++++)
56 (GLQDLLFSL; listed as Homo sapiens) [compound 56] | “+++” (≥50 = +++)

Substance | Peptide exchange (MHC class I binding score, peptide exchange yield)
58 (QLAPFLPQL; listed as Homo sapiens) [compound 58] | “+++” (≥50 = +++)
63 (ALIEEAYGL; listed as Homo sapiens) [compound 63] | “+++” (≥50 = +++)
64 (FLVEVSNDV; listed as Homo sapiens) [compound 64] | “++++” (≥75% = ++++)
65 (NLTDVSPDL; listed as Homo sapiens) [compound 65] | “+++” (≥50 = +++)
69 (TLLAFPLLL; listed as Homo sapiens) [compound 69] | “++++” (≥75% = ++++)
70 (VLIEILQKA; listed as Homo sapiens) [compound 70] | “++++” (≥75% = ++++)
71 (VLLDYVGNVQL; listed as Homo sapiens) [compound 71] | “++++” (≥75% = ++++)
72 (TLQEETAVYL; listed as Homo sapiens) [compound 72] | “++” (≥20% = ++)
75 (AALKYIPSV; listed as Homo sapiens) [compound 75] | “+++” (≥50 = +++)
76 (ALADLVPVDVVV; listed as Homo sapiens) [compound 76] | “++++” (≥75% = ++++)
77 (ALLDVSNNYGI; listed as Homo sapiens) [compound 77] | “++++” (≥75% = ++++)
78 (AMEEAVAQV; listed as Homo sapiens) [compound 78] | “+++” (≥50 = +++)
79 (AMKEEKEQL; listed as Homo sapiens) [compound 79] | “++” (≥20% = ++)
80 (YLFDEIDQA; listed as Homo sapiens) [compound 80] | “+++” (≥50 = +++)
81 (FIFSYITAV; listed as Homo sapiens) [compound 81] | “++” (≥20% = ++)
82 (FLIDGSSSV; listed as Homo sapiens) [compound 82] | “+++” (≥50 = +++)
83 (FLMDDNMSNTL; listed as Homo sapiens) [compound 83] | “+++” (≥50 = +++)
84 (FLQELQLEHA; listed as Homo sapiens) [compound 84] | “+++” (≥50 = +++)
85 (GLAPAEVVVATVA; listed as Homo sapiens) [compound 85] | “+++” (≥50 = +++)
86 (GLATIRAYL; listed as Homo sapiens) [compound 86] | “+++” (≥50 = +++)
87 (GLFARIIMI; listed as Homo sapiens) [compound 87] | “++” (≥20% = ++)

Substance | Peptide exchange (MHC class I binding score, peptide exchange yield)
88 (GLFDNRSGLPEA; listed as Homo sapiens) [compound 88] | “+++” (≥50 = +++)
89 (GLTALHVAV; listed as Homo sapiens) [compound 89] | “+++” (≥50 = +++)
90 (HLDEVFLEL; listed as Homo sapiens) [compound 90] | “+++” (≥50 = +++)
91 (HLSSTTAQV; listed as Homo sapiens) [compound 91] | “++” (≥20% = ++)
92 (KLLFEIASA; listed as Homo sapiens) [compound 92] | “+++” (≥50 = +++)
93 (KLLGSLQLL; listed as Homo sapiens) [compound 93] | “++++” (≥75% = ++++)
94 (LLAGQATTAYF; listed as Homo sapiens) [compound 94] | “+++” (≥50 = +++)
95 (LLFDLIPVVSV; listed as Homo sapiens) [compound 95] | “+++” (≥50 = +++)
96 (LLLNENESLFL; listed as Homo sapiens) [compound 96] | “+++” (≥50 = +++)
97 (LLNFSPGNL; listed as Homo sapiens) [compound 97] | “+” (≥10% = +)
98 (MLQDGIARL; listed as Homo sapiens) [compound 98] | “+++” (≥50 = +++)
99 (QLYDGATALFL; listed as Homo sapiens) [compound 99] | “++” (≥20% = ++)
100 (RLIRTIAAI; listed as Homo sapiens) [compound 100] | “+++” (≥50 = +++)
101 (SLDQSTWNV; listed as Homo sapiens) [compound 101] | “++++” (≥75% = ++++)
102 (SLFAAISGMIL; listed as Homo sapiens) [compound 102] | “+++” (≥50 = +++)
103 (SLQDHLEKV; listed as Homo sapiens) [compound 103] | “+++” (≥50 = +++)
104 (VLLGLPLLV; listed as Homo sapiens) [compound 104] | “+++” (≥50 = +++)
105 (VLTPVILQV; listed as Homo sapiens) [compound 105] | “+++” (≥50 = +++)
106 (VLYELLQYI; listed as Homo sapiens) [compound 106] | “++++” (≥75% = ++++)
107 (VQAVSIPEV; listed as Homo sapiens) [compound 107] | “+++” (≥50 = +++)
